{
  "source": "patent US20210000909A1",
  "molecular_target": "PDZ1/2 domain, P78352",
  "sequence (P78352 61-249 limits assumed)": "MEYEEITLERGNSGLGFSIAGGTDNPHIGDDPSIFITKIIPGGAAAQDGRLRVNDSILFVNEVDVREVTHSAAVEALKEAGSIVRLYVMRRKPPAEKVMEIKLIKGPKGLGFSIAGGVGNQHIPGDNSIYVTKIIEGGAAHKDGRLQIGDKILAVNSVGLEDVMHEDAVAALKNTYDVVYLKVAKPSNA",
  "data": [
    {"binder": "YGRKKRRQRRRYEKLSSIESDV (modifications not checked)", "note": "[chimeric peptide YE-NA-1]", "values": [
      {"measurement": "Kd", "value": 54.4, "unit": "nM"}
    ]}
  ]
}
